Experimental data: US20160115245A1 (VIB VZW, published 2016)

B1: Nb4 (VHH)
VHH: QVQLQESGGGSVQTGGSLRLSCAASGYTFSSYCMGWFRQAPGKERELVSTIISDGSTYYADSVKGRFTISQDNAKNTVYLQMNNLKAEDTAIYYCAARSGGVCSGRASRYNYWGQGTQVTVSS
notes: Same nanobody as m4, but in the HeLa-expressed HA-Myc-His6 format of m6-m8; also called Nb4, HA-Myc-His6 tagged, expressed in HeLa cells
B2: Nb1, His6-tagged, expressed in E. coli (pET30a) (VHH)
VHH: QVQLQESGGGLVQPGGSLRLSCRASETLFSLYAMGWYRQAPGKQPELIATISGGGEGTGNYADPVKGRFTISRNNADNMVFLQMNNLKPEDTAVYYCNVYGTNLAPWGQGTQVTVSS
notes: Alpaca-derived nanobody; also called SOD1 nanobody from alpaca library; not shown: His6 tag and the pET30a vector residues around it
B3: Nb2, His6-tagged, expressed in E. coli (pET30a) (VHH)
VHH: QVQLQESGGGSVQAGGSLRLACVASGGDTRPYITYWMGWYRQAPGKEREGVATIYTGGSGTYYSDSVEGRFTISQDKAQRTVYLQMNDLKPEDTAMYYCAAGNGALPPGRRLSPQNMDTWGPGTQVTVSS
notes: Dromedary-derived nanobody; also called SOD1 nanobody from dromedary library; not shown: His6 tag from pET30a (BamHI/XhoI)

Columns and labels:
[1] = target: T1, SOD1-CFP (human SOD1 fused to CFP, expressed in HeLa cells) (human, UniProt P00441 2-154); assay: Ni-agarose pull-down of HA-Myc-His6 tagged nanobody from co-transfected HeLa cells, blot anti-CFP
T1 construct: not shown: CFP of pCDNA3-CFP (Addgene #13030)

[2] = target: T2, recombinant human superoxide dismutase [Cu-Zn] (SOD1), wild type (human, UniProt P00441 2-154); assay: isothermal titration calorimetry, 25 C
T2 construct: Used immobilised in the dot blot and in solution in ITC; The construct is not described further; also called recombinant SOD1; SOD1 WT

[3] = target: T2, recombinant human superoxide dismutase …; assay: isothermal titration calorimetry, 25 C; remark: listed apart in the source

T2 sequence (P00441 2-154 limits assumed): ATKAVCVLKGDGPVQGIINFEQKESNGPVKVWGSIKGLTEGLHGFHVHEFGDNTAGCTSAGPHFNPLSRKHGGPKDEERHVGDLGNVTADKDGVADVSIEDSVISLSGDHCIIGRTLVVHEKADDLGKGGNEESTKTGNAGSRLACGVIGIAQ
T1 sequence (P00441 2-154): as the sequence (P00441 2-154 limits assumed) above

Binder | binding result [1] | Kd [2] | ΔH [3] | ΔS [3]
B1 | no binding |  |  | 
B2 |  | ~200 nM | -11 kcal/mol | -17 cal/mol/deg
B3 |  | ~1000 nM | -16 kcal/mol | -23 cal/mol/deg
